Patent US20250026829A1 (published 2025)
Where no end group is shown, it is not given here.

Key:
[1] = target: … (SEQ ID NO: 1) HLA-A*24 complex, reduced form of the peptide (human); experiment: SPR, soluble TCR over immobilised biotinylated pHLA, equilibrium, 25 C
[2] = target: T1, PRAME peptide on HLA-A*24:02 (human); experiment: SPR, equilibrium, 25 C; reduced peptide; soluble, with an engineered disulfide between the constant domains
T1 peptide: PYLGQMINL

[3] = target: … (SEQ ID NO: 1) HLA-A*24 complex, oxidised form of the peptide (human); experiment: SPR, soluble TCR over immobilised biotinylated pHLA, equilibrium, 25 C
[4] = target: T2, PRAME peptide on HLA-A*24:02 (human, not fully specified (residue 6)); experiment: SPR, equilibrium, 25 C; oxidised peptide; soluble, with an engineered disulfide between the constant domains
T2 peptide: PYLGQMINL

B1: S1 (TCR)
alpha TRAV24 CDR3: AFISWRSSGDKLT
beta TRBV25 CDR3: ASSSPLSGPLASPLH
- Kd [1]: 85 µM
- Kd [2]: 85 µM

B2: S4 (TCR)
alpha TRAV12-2 CDR3: AVNGPNNAGNMLT
beta TRBV6-2/3 CDR3: ASSPGGFGQPQH
- Kd [1]: 18.9 µM
- Kd [2]: 18.9 µM

B3: S6 (TCR)
alpha TRAV21 CDR3: AVPNPSARQLT
beta TRBV7-9 CDR3: ASSLEGQGVEQF
- Kd [1]: 126 µM
- Kd [3]: 241 µM
- Kd [4]: 241 µM
- Kd [2]: 126 µM

B4: S5 (TCR)
alpha TRAV12-2 CDR3: AVNKGFQKLV
beta TRBV6-1 CDR3: ASSEGWGGQPQH
- Kd [1]: 14.5 µM
- Kd [2]: 14.5 µM

B5: S10 (TCR)
alpha TRAV27 CDR3: GAIWSTLGRLY
beta TRBV5-6 CDR3: SSFKGVNQPQH
- Kd [1]: 53 µM
- Kd [3]: 193 µM
- Kd [4]: 193 µM
- Kd [2]: 53 µM
